Reference: paper PMC9046454

Assays:
[1] = target: T1, nLuc-AFF (6*-50* duplication, 6-aa linker AAGASS) (UniProt P03069 226-281); assay: luminescence switching
[2] = target: T1, nLuc-AFF (6*-50* duplication, 6-aa …); assay: luminescence ratio L460/L520 titration
[3] = target: T1, nLuc-AFF (6*-50* duplication, 6-aa …); assay: luminescence ratio L460/L520 titration; remark: listed apart in the source
[4] = target: T1, nLuc-AFF (6*-50* duplication, 6-aa …); assay: fluorescence anisotropy

T1 sequence (P03069 226-281): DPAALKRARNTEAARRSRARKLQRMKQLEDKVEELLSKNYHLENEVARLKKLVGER

| Binder | binding result [1] | Kd [2] [nM] | Kd [3] [nM] | Kd [4] [nM] |
| --- | --- | --- | --- | --- |
| NC duplex (non-consensus) (dsDNA) DNA 1: GTTCCAGGTTAAGAAGTGCTCTCAGGGTGGCGCGGC DNA 2: GCCGCGCCACCCTGAGAGCACTTCTTAACCTGGAAC | no binding |  |  |  |
| AP-1 duplex (dsDNA) DNA 1: AGTGGAGATGACTCATCTCGTGC DNA 2: GCACGAGATGAGTCATCTCCACT |  | 37 ± 11 | 14.3 ± 3.5 | 11.6 ± 2.5 |
